Assay results: the supplement of paper PMC7877785
± gives the uncertainty stated by the source.

Assay: self-splicing fitness, log relative to wild type (ln ratio); higher = more splicing; Tetrahymena group I intron in knt gene, E. coli kanamycin selection, DiMSum; sequences stand for … in CUCUCU…GGAGGGAAAAGUUAUCAGGCAUGCACCUGGUAGCUAGUCUUUAAACCAAUAGAUUGCAUCGGUUUAAAAGGCAAGACCGUCAAAUUGCGGGAAAGGGGUCAACAGCCGUUCAGUACCAAGUCUCAGGGGAAACUUUGAGAUGGCCUUGCAAAGGGUAUGGUAAUAAGCUGACGGACAUGGUCCUAACCACGCAGCCAAGUCCUAAGUCAACAGAUCUUCUGUUGAUAUGGAUGCAGUUCACAGACUAAAUGUCGGUCGGGGAAGAUGUAUUCUUCUCAUAAGAUAUAGUCGGACCUCUCCUUAAUGGGAGCUAGCGGAUGAAGUGAUGCAACACUGGAGCCGCUGGGAACUAAUUUGUAUGCGAAAGUAUAUUGAUUAGUUUUGGAGUACUCGUGGUCG
Procedure, shortened: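 DiMSum derived fitness as the error-weighted combination of fold changes across replicates, kanamycin versus no kanamycin, normalised to wild type. E. coli BL21(DE3) held the library, which randomised all eight P1ex-region intron nucleotides within the knt kanamycin-resistance gene on pET-22b(+). Six replicate transformations grew overnight at 37°C or 30°C on LB agar with or without 25 μg/mL kanamycin, also containing 100 μg/mL carbenicillin, 50 μM IPTG and 0.2% rhamnose, and pooled colonies were amplicon-sequenced on an Illumina HiSeq 2500.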

| Sequence | self-splicing fitness (ln) (30 °C) | self-splicing fitness (ln) (37 °C) |
| --- | --- | --- |
| UAGAAGCAAUAUUACGAACC | -2.02 ± 0.24 | -0.44 ± 0.3 |
| UAGAAGCAAUAUUACGAAGU | -3.7 ± 0.4 | -1.17 ± 0.22 |
| UAGAAGCAAUAUUACGACAC | -1.77 ± 0.43 | -2.07 ± 0.25 |
| UAGAAGCAAUAUUACGAGAU | -3.64 ± 0.33 | -2.16 ± 0.23 |
| UAGAAGCAAUAUUACGAGUC | -2.76 ± 0.39 | -2.02 ± 0.33 |
| UAGAAGCAAUAUUACGAUCC | -2.25 ± 0.23 | -1.45 ± 0.3 |
| UAGAAGCAAUAUUACGCAUA | -1.55 ± 0.17 | -1.36 ± 0.12 |
| UAGAAGCAAUAUUACGCCCA | -0.128 ± 0.15 | 0.21 ± 0.25 |
| UAGAAGCAAUAUUACGCCCC | -3.03 ± 0.2 | -1.63 ± 0.23 |
| UAGAAGCAAUAUUACGCCUU | -1.03 ± 0.22 | -1.38 ± 0.26 |
| UAGAAGCAAUAUUACGCGAU | -2.95 ± 0.41 |  |
| UAGAAGCAAUAUUACGCGCC | -3.18 ± 0.24 | -0.65 ± 0.13 |
| UAGAAGCAAUAUUACGCGCG | -0.301 ± 0.12 | -0.204 ± 0.13 |
| UAGAAGCAAUAUUACGCUAU | -4.05 ± 0.27 | -3.13 ± 0.27 |
| UAGAAGCAAUAUUACGCUCG | -1.06 ± 0.13 | -0.333 ± 0.12 |
| UAGAAGCAAUAUUACGGAAC | -1.25 ± 0.34 |  |
| UAGAAGCAAUAUUACGGCAU | -1.96 ± 0.12 | -0.323 ± 0.094 |
| UAGAAGCAAUAUUACGGCUG | -0.338 ± 0.11 | 0.218 ± 0.15 |
| UAGAAGCAAUAUUACGGGGG |  | -2.25 ± 0.45 |
| UAGAAGCAAUAUUACGGUGA | -1.28 ± 0.12 | -0.667 ± 0.12 |
| UAGAAGCAAUAUUACGGUUU | -3.09 ± 0.17 | -2.28 ± 0.16 |
| UAGAAGCAAUAUUACGUAUG | -1.01 ± 0.07 | -1.14 ± 0.11 |
| UAGAAGCAAUAUUACGUUCC | -2.51 ± 0.19 | -0.539 ± 0.17 |
| UAGCAGCAAUAUUACGAAUC | -3.68 ± 0.42 | -2.03 ± 0.27 |
| UAGCAGCAAUAUUACGACGG | -0.73 ± 0.09 | -0.313 ± 0.12 |

| Sequence | self-splicing fitness (ln) (30 °C) | self-splicing fitness (ln) (37 °C) |
| --- | --- | --- |
| UAGCAGCAAUAUUACGACUU | -0.541 ± 0.098 | 0.107 ± 0.11 |
| UAGCAGCAAUAUUACGAGCA | -1.48 ± 0.13 | 0.249 ± 0.13 |
| UAGCAGCAAUAUUACGAUUU | -2.03 ± 0.11 | -0.879 ± 0.12 |
| UAGCAGCAAUAUUACGCAUU | -2.38 ± 0.13 | -1.08 ± 0.11 |
| UAGCAGCAAUAUUACGCGCG | -1.09 ± 0.17 | 0.624 ± 0.17 |
| UAGCAGCAAUAUUACGCGCU | -2.62 ± 0.12 | -1.6 ± 0.12 |
| UAGCAGCAAUAUUACGCUAA | -2.07 ± 0.26 | -1.73 ± 0.27 |
| UAGCAGCAAUAUUACGCUAU | -3.88 ± 0.23 | -3.49 ± 0.37 |
| UAGCAGCAAUAUUACGCUCU | -1.27 ± 0.087 | -1.04 ± 0.088 |
| UAGCAGCAAUAUUACGGCCG | -0.163 ± 0.071 | 0.0112 ± 0.085 |
| UAGCAGCAAUAUUACGUACU | -1.74 ± 0.1 | -0.434 ± 0.1 |
| UAGCAGCAAUAUUACGUAGU | -2.15 ± 0.14 | -2.48 ± 0.31 |
| UAGCAGCAAUAUUACGUAUA | -1.89 ± 0.096 | -0.924 ± 0.12 |
| UAGCAGCAAUAUUACGUAUG | -1.13 ± 0.061 | -0.563 ± 0.084 |
| UAGCAGCAAUAUUACGUCAA | -1.79 ± 0.12 | -1.21 ± 0.11 |
| UAGCAGCAAUAUUACGUCCG | -0.746 ± 0.055 | 0.357 ± 0.08 |
| UAGCAGCAAUAUUACGUUGC | -2.57 ± 0.21 | -1.91 ± 0.21 |
| UAGGAGCAAUAUUACGACGG | -2.88 ± 0.13 | -0.471 ± 0.12 |
| UAGGAGCAAUAUUACGAGUA | -2.81 ± 0.24 | -1.93 ± 0.22 |
| UAGGAGCAAUAUUACGCCAA | -3.23 ± 0.4 | -2.13 ± 0.42 |
| UAGGAGCAAUAUUACGCCGA | -2.76 ± 0.21 | -0.577 ± 0.27 |
| UAGGAGCAAUAUUACGCGUU | -4.38 ± 0.24 | -1.37 ± 0.14 |
| UAGGAGCAAUAUUACGCUAC |  | 0.223 ± 0.43 |
| UAGGAGCAAUAUUACGCUUG | -1.18 ± 0.32 | 0.65 ± 0.36 |
| UAGGAGCAAUAUUACGGCGC | -1.76 ± 0.36 | -2.54 ± 0.41 |

| Sequence | self-splicing fitness (ln) (30 °C) | self-splicing fitness (ln) (37 °C) |
| --- | --- | --- |
| UAGGAGCAAUAUUACGGCGU | -3.14 ± 0.24 | -1.43 ± 0.28 |
| UAGGAGCAAUAUUACGGGGU | -3.84 ± 0.4 | -2.12 ± 0.35 |
| UAGGAGCAAUAUUACGGUCA | -2.65 ± 0.47 | -2.19 ± 0.26 |
| UAGGAGCAAUAUUACGGUUU | -3.54 ± 0.3 | -3.45 ± 0.39 |
| UAGGAGCAAUAUUACGUAGG | -3.28 ± 0.2 | -1.15 ± 0.18 |
| UAGGAGCAAUAUUACGUCAA |  | -2.27 ± 0.46 |
| UAGGAGCAAUAUUACGUCGA | -3.16 ± 0.2 | -1.55 ± 0.21 |
| UAGGAGCAAUAUUACGUCUG | -0.473 ± 0.13 | 0.629 ± 0.15 |
| UAGGAGCAAUAUUACGUGAA | -1.66 ± 0.34 | -1.93 ± 0.34 |
| UAGGAGCAAUAUUACGUGAC | -3 ± 0.23 |  |
| UAGGAGCAAUAUUACGUGGC |  | -0.624 ± 0.36 |
| UAGGAGCAAUAUUACGUUGG |  | -1.27 ± 0.28 |
| UAGUAGCAAUAUUACGAAUG | -2.77 ± 0.16 | -0.412 ± 0.13 |
| UAGUAGCAAUAUUACGAGGU | -2.28 ± 0.36 |  |
| UAGUAGCAAUAUUACGAUCU | -1.22 ± 0.11 | -0.472 ± 0.13 |
| UAGUAGCAAUAUUACGCAUC | -2.64 ± 0.28 |  |
| UAGUAGCAAUAUUACGCGAC |  | -1.69 ± 0.29 |
| UAGUAGCAAUAUUACGCUCA | -0.29 ± 0.13 | 0.69 ± 0.15 |
| UAGUAGCAAUAUUACGGAUU | -4.06 ± 0.47 | -0.834 ± 0.18 |
| UAGUAGCAAUAUUACGGCCU | -0.563 ± 0.15 | -0.218 ± 0.24 |
| UAGUAGCAAUAUUACGGGUA | -1.99 ± 0.12 | -0.398 ± 0.097 |
| UAGUAGCAAUAUUACGGUAA | -2.68 ± 0.3 | -2.18 ± 0.29 |
| UAGUAGCAAUAUUACGGUGC | -3.13 ± 0.17 | -2.39 ± 0.19 |
| UAGUAGCAAUAUUACGGUGU | -3.57 ± 0.32 | -3.21 ± 0.4 |
| UAGUAGCAAUAUUACGUAAG | -4.17 ± 0.46 | -1.11 ± 0.23 |

| Sequence | self-splicing fitness (ln) (30 °C) | self-splicing fitness (ln) (37 °C) |
| --- | --- | --- |
| UAGUAGCAAUAUUACGUAGA | -3.53 ± 0.24 | -1.93 ± 0.17 |
| UAUAAGCAAUAUUACGACUG | 0.143 ± 0.076 | 0.22 ± 0.098 |
| UAUAAGCAAUAUUACGAGCG | -0.0858 ± 0.098 | -0.062 ± 0.1 |
| UAUAAGCAAUAUUACGAGGA | -2.44 ± 0.42 |  |
| UAUAAGCAAUAUUACGAUCC |  | -2.05 ± 0.37 |
| UAUAAGCAAUAUUACGAUGG | -1.62 ± 0.13 | -1.48 ± 0.2 |
| UAUAAGCAAUAUUACGCGAU | -3.6 ± 0.21 | -3.37 ± 0.22 |
| UAUAAGCAAUAUUACGGACU | -2.12 ± 0.11 | -0.796 ± 0.11 |
| UAUAAGCAAUAUUACGGAGA | -3.11 ± 0.36 | -2.33 ± 0.46 |
| UAUAAGCAAUAUUACGGCCG | 0.336 ± 0.23 | 0.0314 ± 0.26 |
| UAUAAGCAAUAUUACGGCUC | -1.1 ± 0.17 | -0.161 ± 0.2 |
| UAUAAGCAAUAUUACGGCUG | 0.381 ± 0.13 | 0.0603 ± 0.14 |
| UAUAAGCAAUAUUACGGUAC | -3.46 ± 0.3 | -2.23 ± 0.29 |
| UAUAAGCAAUAUUACGGUCG | -0.167 ± 0.097 | -0.128 ± 0.12 |
| UAUAAGCAAUAUUACGGUUC | -3.49 ± 0.37 | -1.05 ± 0.33 |
| UAUAAGCAAUAUUACGUAUA | -2.77 ± 0.21 | -0.986 ± 0.17 |
| UAUAAGCAAUAUUACGUUCU | -1.03 ± 0.14 | -1.41 ± 0.2 |
| UAUAAGCAAUAUUACGUUGC | -3.02 ± 0.3 |  |
| UAUCAGCAAUAUUACGAAGU | -2.82 ± 0.28 | -0.868 ± 0.29 |
| UAUCAGCAAUAUUACGAAUA | -0.934 ± 0.18 | -0.486 ± 0.11 |
| UAUCAGCAAUAUUACGACCA | -0.0276 ± 0.12 | 0.439 ± 0.16 |
| UAUCAGCAAUAUUACGACCC | -1.87 ± 0.15 | -1.71 ± 0.18 |
| UAUCAGCAAUAUUACGAUCU | -0.554 ± 0.1 | -0.0299 ± 0.098 |
| UAUCAGCAAUAUUACGCAAA | -0.36 ± 0.12 | -0.755 ± 0.11 |
